Assay results: patent publication US20150368351A1 (ENGMAB SARL, published 2015)

T1: recombinant human BCMA Fc(kih) (human, UniProt Q02223 4-53, biotin on the avi-tag at the C-terminus of the Fc knob chain (BirA, in vivo))
T1 construct: range 4-53;domain: Fc portion (hole chain); Monomeric Fc fusion made in HEK EBNA cells: one BCMA extracellular domain on the knob chain, paired with an unfused hole chain; also called huBCMA Fc(kih); biotinylated human BCMA; not shown: hinge and Fc portion of human IgG1, knob chain (knobs-into-holes)
T1 chain (looked up): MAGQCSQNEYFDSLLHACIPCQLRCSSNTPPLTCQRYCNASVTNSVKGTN

T2: human BCMA on BCMA-expressing multiple myeloma cells (H929, RPMI-8226) (human, UniProt Q02223 1-184)
T2 construct: whole, on cells; Endogenous BCMA on H929 (ATCC CRL-9068) or RPMI 8226 (ATCC CCL-155) cells; also called TNFRSF17; H929 cells
T2 sequence (looked up): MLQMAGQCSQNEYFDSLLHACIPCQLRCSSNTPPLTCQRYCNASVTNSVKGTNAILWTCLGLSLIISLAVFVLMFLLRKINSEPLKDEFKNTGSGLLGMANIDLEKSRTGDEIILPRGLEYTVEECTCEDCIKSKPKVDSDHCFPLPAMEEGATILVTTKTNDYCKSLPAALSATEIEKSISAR

B1: 13A4 anti-BCMA IgG (antibody, V domains shown)
VH: EVQLVQSGAEVKKPGESLKISCKGSGYSFTSYWIGWVRQMPGKGLEWMGIIYPGDSDTRYSPSFQGQVTISADKSISTAYLQWSSLKASDTAMYYCARNGYLGDYWGQGTLVTVSS
VL: not shown
B2: anti-BCMA Fab clone 13A4 (Fab, V domains shown)
VH: EVQLVQSGAEVKKPGESLKISCKGSGYSFTSYWIGWVRQMPGKGLEWMGIIYPGDSDTRYSPSFQGQVTISADKSISTAYLQWSSLKASDTAMYYCARNGYLGDYWGQGTLVTVSS
VL: not shown
notes: detected by anti-FLAG antibody

Tests used:
[1] = molecular target: T1, recombinant human BCMA Fc(kih); test: SPR, Biacore T200, 25 C; IgG captured by anti-human Fab antibody on CM5 chip, BCMA Fc(kih) as analyte, 1:1 Langmuir
[2] = molecular target: T2, human BCMA on BCMA-expressing multiple …; test: flow cytometry on H929 cells; IgG 20 µg/mL incubated together with competitor Δ-APRIL 2.5 µg/mL; fluorochrome-conjugated anti-human Fc detection
[3] = molecular target: T1, recombinant human BCMA Fc(kih); test: SPR, ProteOn XPR36, 25 C; biotinylated BCMA on NLC chip by neutravidin capture, Fab as analyte, 1:1 Langmuir
[4] = molecular target: T1, recombinant human BCMA Fc(kih); test: competition ELISA; biotinylated human BCMA on neutravidin plate saturated with 500 or 1000 nM Fab, competitor murine APRIL 50 nM (1000 ng/mL); anti-FLAG-HRP, OD450-650
[5] = molecular target: T1, recombinant human BCMA Fc(kih); test: competition ELISA; biotinylated human BCMA on neutravidin plate saturated with 500 or 1000 nM Fab, competitor murine APRIL 6.25 nM (140 ng/mL); anti-FLAG-HRP, OD450-650

| Binder | Kd [1] | koff [1] | kon [1] | Reduction (↓) in binding of anti-BCMA antibodies in presence of APRIL [2] | Kd [3] | Reduction (↓) in OD values in presence of muAPRIL [4] | Reduction (↓) in OD values in presence of muAPRIL [5] |
| --- | --- | --- | --- | --- | --- | --- | --- |
| B1 | 5.1 nM | 0.00036 s⁻¹ | 72000 M⁻¹ s⁻¹ | 25% |  |  |  |
| B2 |  |  |  |  | 1.8 nM | 13.1% | 7.7% |
